Values belong to the binder of their own block, whether it stands above or below them.
Columns and labels:
human CLDN6 protein [1] = biological target: T1, human CLDN6 protein (human, UniProt P56747 1-220); experiment: flow cytometry on cells overexpressing human CLDN6; 10 µg/mL purified antibody, Alexa 647 anti-mouse secondary; single point
T1 construct: whole, on cells; also called hCLDN6; claudin 6
T1 sequence (looked up): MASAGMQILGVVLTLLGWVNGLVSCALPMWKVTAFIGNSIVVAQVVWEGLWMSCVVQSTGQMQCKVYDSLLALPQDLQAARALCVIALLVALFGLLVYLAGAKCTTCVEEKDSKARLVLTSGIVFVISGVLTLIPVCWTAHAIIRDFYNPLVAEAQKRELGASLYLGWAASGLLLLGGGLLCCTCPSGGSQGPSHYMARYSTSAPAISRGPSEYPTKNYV

human CLDN6 protein [2] = biological target: T1, human CLDN6 protein; experiment: cell-based or functional assay
human CLDN9 protein [3] = biological target: T2, human CLDN9 protein (human, UniProt O95484 1-217); experiment: cell-based or functional assay
T2 sequence (looked up): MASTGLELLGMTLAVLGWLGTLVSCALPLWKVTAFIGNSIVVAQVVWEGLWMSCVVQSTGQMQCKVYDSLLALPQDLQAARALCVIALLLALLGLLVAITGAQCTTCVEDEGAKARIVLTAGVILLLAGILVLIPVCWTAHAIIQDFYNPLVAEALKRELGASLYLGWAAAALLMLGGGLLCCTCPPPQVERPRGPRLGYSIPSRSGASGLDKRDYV

human CLDN4 protein [4] = biological target: T3, human CLDN4 protein (human, UniProt O14493 1-209); experiment: flow cytometry on cells overexpressing human CLDN4; Alexa 647 anti-mouse secondary; single point
T3 construct: whole, on cells; also called hCLDN4; claudin 4
T3 sequence (looked up): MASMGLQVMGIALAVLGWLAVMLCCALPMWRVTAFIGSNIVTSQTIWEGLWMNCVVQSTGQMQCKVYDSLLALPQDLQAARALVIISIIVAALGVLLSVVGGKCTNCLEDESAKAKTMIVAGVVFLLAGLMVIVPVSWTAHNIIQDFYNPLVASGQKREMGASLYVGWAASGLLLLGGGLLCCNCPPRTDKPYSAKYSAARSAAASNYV

human CLDN9 protein [5] = biological target: T2, human CLDN9 protein; experiment: flow cytometry on cells overexpressing human CLDN9; 10 µg/mL purified antibody, Alexa 647 anti-mouse secondary; single point
human CLDN6 protein [6] = biological target: T1, human CLDN6 protein; experiment: cell-based or functional assay; remark: listed apart in the source
human CLDN9 protein [7] = biological target: T2, human CLDN9 protein; experiment: cell-based or functional assay; remark: listed apart in the source
human CLDN4 protein [8] = biological target: T3, human CLDN4 protein; experiment: flow cytometry on cells overexpressing human CLDN4; 10 µg/mL purified antibody, Alexa 647 anti-mouse secondary; single point
[9] = biological target: hCLDN proteins on the surface of PDX tumor cells; experiment: flow cytometry on OV91MET (OV-PS) PDX tumor cells, CSC subpopulation (EPCAM+ CD46hi CD324+); change in geometric MFI against the IgG1 isotype control
[10] = biological target: hCLDN proteins on the surface of PDX tumor cells; experiment: flow cytometry on LU135 (LU-Ad) PDX tumor cells, CSC subpopulation (EPCAM+ CD46hi CD324+); change in geometric MFI against the IgG1 isotype control
[11] = biological target: hCLDN proteins on the surface of PDX tumor cells; experiment: flow cytometry on LU135 (LU-Ad) PDX tumor cells, NTG subpopulation; change in geometric MFI against the IgG1 isotype control
[12] = biological target: hCLDN proteins on the surface of PDX tumor cells; experiment: flow cytometry on PA49 (PDAC) PDX tumor cells, CSC subpopulation (EPCAM+ CD46hi CD324+); change in geometric MFI against the IgG1 isotype control
[13] = biological target: hCLDN proteins on the surface of PDX tumor cells; experiment: flow cytometry on PA24 (PDAC) PDX tumor cells, CSC subpopulation (EPCAM+ CD46hi CD324+); change in geometric MFI against the IgG1 isotype control
[14] = biological target: hCLDN proteins on the surface of PDX tumor cells; experiment: flow cytometry on PA20 (PDAC) PDX tumor cells, NTG subpopulation; change in geometric MFI against the IgG1 isotype control
[15] = biological target: hCLDN proteins on the surface of PDX tumor cells; experiment: flow cytometry on OV54MET (OV-S) PDX tumor cells, NTG subpopulation; change in geometric MFI against the IgG1 isotype control
[16] = biological target: hCLDN proteins on the surface of PDX tumor cells; experiment: flow cytometry on OV91MET (OV-PS) PDX tumor cells, NTG subpopulation; change in geometric MFI against the IgG1 isotype control
[17] = biological target: hCLDN proteins on the surface of PDX tumor cells; experiment: flow cytometry on LU22 (LU-Sq) PDX tumor cells, CSC subpopulation (EPCAM+ CD46hi CD324+); change in geometric MFI against the IgG1 isotype control
[18] = biological target: hCLDN proteins on the surface of PDX tumor cells; experiment: flow cytometry on PA20 (PDAC) PDX tumor cells, CSC subpopulation (EPCAM+ CD46hi CD324+); change in geometric MFI against the IgG1 isotype control
[19] = biological target: hCLDN proteins on the surface of PDX tumor cells; experiment: flow cytometry on OV44 (OV-S) PDX tumor cells, NTG subpopulation; change in geometric MFI against the IgG1 isotype control
[20] = biological target: hCLDN proteins on the surface of PDX tumor cells; experiment: flow cytometry on PA49 (PDAC) PDX tumor cells, NTG subpopulation; change in geometric MFI against the IgG1 isotype control
[21] = biological target: hCLDN proteins on the surface of PDX tumor cells; experiment: flow cytometry on OV54MET (OV-S) PDX tumor cells, CSC subpopulation (EPCAM+ CD46hi CD324+); change in geometric MFI against the IgG1 isotype control
[22] = biological target: hCLDN proteins on the surface of PDX tumor cells; experiment: flow cytometry on LU22 (LU-Sq) PDX tumor cells, NTG subpopulation; change in geometric MFI against the IgG1 isotype control
[23] = biological target: hCLDN proteins on the surface of PDX tumor cells; experiment: flow cytometry on OV44 (OV-S) PDX tumor cells, CSC subpopulation (EPCAM+ CD46hi CD324+); change in geometric MFI against the IgG1 isotype control
[24] = biological target: hCLDN proteins on the surface of PDX tumor cells; experiment: flow cytometry on PA24 (PDAC) PDX tumor cells, NTG subpopulation; change in geometric MFI against the IgG1 isotype control
human CLDN9 protein [25] = biological target: T2, human CLDN9 protein; experiment: flow cytometry, antibody titration on HEK-293T cells overexpressing CLDN9, four parameter fit of fraction maximal binding; HEK-293T cells overexpressing CLDN9
Excerpt: (§1) Following additional washing with PBS, cells were fixed with paraformaldehyde (PFA) and read on a BD FACS Canto II flow cytometer in accordance with the manufacturer's instructions. MFI values were normalized using fluorescent microspheres (Bangs Laboratories) according to manufacturer's instructions.

human CLDN6 protein [26] = biological target: T1, human CLDN6 protein; experiment: flow cytometry, antibody titration on HEK-293T cells overexpressing CLDN6, four parameter fit of fraction maximal binding; HEK-293T cells overexpressing CLDN6
Excerpt: as §1

MFI (human CLDN6 protein [1]): 99600
binding result (human CLDN4 protein [4]): no binding (tested: 10 µg/mL)
MFI (human CLDN9 protein [5]): 12100
MFI (human CLDN4 protein [8]): 75
B1: SC27.103 mouse monoclonal anti-CLDN antibody (antibody, V domains shown)
VH: EVHLQQSGPELVKPGGSMKISCKASGYSFTGYTMNWVKQSHGKNLEWIGLFNPYNGGTSYNQKFKGKATLTVDKSSSTAYMELLSLTSEDSAVYYCARCYRYDGLDYWGQGTTLTVSS
VL: QIVLTQSPAIMSASLGERVTMTCTASSSVSSSYLHWYQQKPGSSPTLWIYRTSDLASGVPARFSGSGSGTSYSLTISSMEAEDAATYYCHQYHRSPWTFGGGTRLEIK
apparent IC50 of killing of HEK-293T cells overexpressing hCLDN6; antibody titrated 0.15 to 1000 nM with anti-mouse IgG Fab-saporin, CellTiter-Glo (human CLDN6 protein [2]): 57.7 nM
apparent IC50 of killing of HEK-293T cells overexpressing hCLDN9; antibody titrated 0.15 to 1000 nM with anti-mouse IgG Fab-saporin, CellTiter-Glo (human CLDN9 protein [3]): 466 nM
apparent IC50 of saporin-mediated cell killing (human CLDN6 protein [6]): 58 nM
apparent IC50 of saporin-mediated cell killing (human CLDN9 protein [7]): 466 nM

ΔMFI [9]: 118
ΔMFI [10]: 88
ΔMFI [11]: 17
ΔMFI [12]: 194
ΔMFI [13]: 1580
ΔMFI [14]: 60
ΔMFI [15]: 21
ΔMFI [16]: 0
ΔMFI [17]: 733
ΔMFI [18]: 250
ΔMFI [19]: 53
ΔMFI [20]: 0
ΔMFI [21]: 763
ΔMFI [22]: 31
ΔMFI [23]: 643
ΔMFI [24]: 223
B2: SC27.1 mouse monoclonal anti-CLDN antibody (antibody, V domains shown)
VH: EVQLQESRPELVKPGASVKISCKTSGYTFTEYTLHWVKQSHGKSLEWIGGINPNNGDTIYNQKFKGKATLTVDKSSSTAYMELRSLTSEYSAVYYCARRAITVYAMDYWGQGTSVTVSS
VL: DIQMTQSSSSFSVSLGDRVTITCKASEDIYNRLAWYQQKPGNAPRLLISGATSLETGTPSRFSGSGSGKDYTLSITSLRTEDAATYYCQQYWSTPLTFGTGTKLELK

EC50 (human CLDN9 protein [25]): 4.66 µg/mL
EC50 (human CLDN6 protein [26]): 3.45 µg/mL
B3: hSC27.22 humanized anti-CLDN antibody (antibody, human IgG1, kappa, V domains shown)
VH: QVQLVQSGAEVKKPGASVKVSCKASGYTFTSYWMNWVRQAPGQRLEWMGMIHPSDSEIRLNQKFKDRVTITRDTSASTAYMELSSLRSEDTAVYYCARIDSYYGYLFYFDYWGQGTTVTVSS
VL: DIVMTQSPDSLAVSLGERATINCRASQTVSTSSYSYMHWYQQKPGQPPKLLIYFASNVESGVPDRFSGSGSGTDFTLTISSLQAEDVAVYYCQHSWEIPWTFGQGTKLEIKR

Source: patent US20190077876A1 (AbbVie / Abbott, published 2019)
